Key:
[1] = test system: O=[N+]([O-])c1ccc(O[C@@H]2O[C@H](CO)[C@@H](O)[C@H](O)[C@@H]2O)cc1; experiment: purified protein; conditions: stated pHopt and Topt (pH 6.5, 60 °C; methods for pNP sugars give 50 mM sodium phosphate pH 6.0, 50 °C, 10 min); 0.5 to 20 mM substrate
[2] = target: CaMan5_18, exo-β-1,4-mannosidase (GH5 subfamily 18) from Cutibacterium acnes strain 266 (Cutibacterium acnes strain 266); experiment: SEC; HiLoad 16/60 Superdex 200 prep grade in 25 mM K2HPO4 pH 7.2, 150 mM NaCl, calibrated with five protein standards

Substance | Km [1] [mM] | kcat [1] [s⁻¹] | kcat/Km [1] [M⁻¹ s⁻¹] | stoichiometry N [2]
CaMan5_18 (Cutibacterium acnes subsp. acnes) | 10.4 | 7.8 | 750 | 
CaMan5_18, exo-β-1,4-mannosidase (GH5 subfamily 18) from Cutibacterium acnes strain 266 (enzyme) |  |  |  | 2

Source: publication PMC6160142, “Structural and biochemical characterization of the Cutibacterium acnes exo-β-1,4-mannosidase that targets the N-glycan core of host glycoproteins” (PLoS ONE, 2018)
